Consider one substance from patent publication US20200284794A1.

For assay [1], the target named is Keratin 17 recombinant protein (human) (UniProt Q04695). The experiment in a line: sandwich ELISA: E3 capture, 2D10-HRP detection, recombinant K17 calibrators. In general terms: An ELISA detects its analyte on a solid surface through an enzyme-linked reagent.
Assay [2] shares this target. The experiment in a line: sandwich ELISA: E3 coated 2 ug/mL, recombinant K17 calibrator 1.4 ng/mL, detection 2D10-HRP 1 ug/mL.
For assay [3] the target is unchanged. The experiment in a line: sandwich ELISA: E3 coated 2 ug/mL, recombinant K17 calibrator 4.1 ng/mL, detection 2D10-HRP 1 ug/mL.
Assay [4] shares this target. The experiment in a line: sandwich ELISA: E3 coated 2 ug/mL, recombinant K17 calibrator 1000 ng/mL, detection 2D10-HRP 1 ug/mL.
Assay [5] shares this target. The assay can be described thus: sandwich ELISA: E3 coated 2 ug/mL, recombinant K17 calibrator 12.3 ng/mL, detection 2D10-HRP 1 ug/mL.
The target is the same in assay [6]. The experiment in a line: sandwich ELISA: E3 coated 2 ug/mL, recombinant K17 calibrator 37.0 ng/mL, detection 2D10-HRP 1 ug/mL.
Assay [7] shares this target. The experiment in a line: sandwich ELISA: E3 coated 2 ug/mL, recombinant K17 calibrator 111.1 ng/mL, detection 2D10-HRP 1 ug/mL.
The target is the same in assay [8]. The experiment in a line: sandwich ELISA: E3 coated 2 ug/mL, recombinant K17 calibrator 333.3 ng/mL, detection 2D10-HRP 1 ug/mL.
Assay [9] has as its target Keratin 17 in HeLa cells (human) (UniProt Q04695). The assay can be described thus: microfluidic cytometry (Moxi Go), methanol-fixed HeLa cells, E3 primary antibody, PE anti-mouse secondary.

Regarding “mouse monoclonal-[E3] anti-human K17 antibody”, the limit of sensitivity in assay [1] came out at 1 ng/mL. In addition, the OD Avg. (450 nm) turned out to be 0.084 OD in assay [2]; 0.141 OD in assay [3]; 3.59 OD in assay [4]; 0.321 OD in assay [5]; 0.838 OD in assay [6]; 2.38 OD in assay [7]. Further, the OD Avg. (450 nm) in assay [8] turned out to be 3.59 OD. The OD-1 (450 nm) is 0.087 OD in [2]; 0.142 OD in assay [3]; 3.56 OD in [4]; 0.323 OD in [5]; 0.844 OD in [6]; 2.47 OD in [7]. In addition, the OD-1 (450 nm) in [8] was 3.58 OD. Besides, the OD-2 (450 nm) in [2] came out at 0.081 OD; in [3], 0.14 OD; in assay [4] it was 3.62 OD; in [5], 0.318 OD; in assay [6] it was 0.832 OD; in assay [7] it was 2.29 OD. Besides, in assay [8], the OD-2 (450 nm) came to 3.6 OD. The substance also came in with a % K17-positive cells in assay [9] of 90.4%.
